Reference: patent US7943340B2, “Fungal dipeptidyl peptidase IV (DPPIV) enzyme for reagent use” (priority 2003, dated 2011)
“Also recorded” adds a separate entry of the source.

B1: fuLAP2: A. fumigatus leucine aminopeptidase, 498 amino acid residues (SEQ ID NO: 9) (protein, listed as Aspergillus fumigatus)
chain: MKLLYLTSFASLAVANGPGWDWKPRVHPKVLPQMIHLWDLLQGAQQLEDFAYAYPERNRVFGGRAHEDTVNYLYRELKKTGYYDVYKQPQVHQWTRADQALTVDGQSYDATTMTYSPSVNATAPLAVVNNLGCVEADYPADLTGKIALISRGECTFATKSVLSAKAGAAAALVYNNIEGSMAGTLGGATSELGAYAPIAGISLADGQALIQMIQAGTVTANLWIDSQVENRTTYNVIAQTKGGDPNNVVALGGHTDSVEAGPGINDDGSGIISNLVVAKALTRFSVKNAVRFCFWTAEEFGLLGSNYYVNSLNATEQAKIRLYLNFDMIASPNYALMIYDGDGSAFNLTGPAGSAQIERLFEDYYTSIRKPFVPTEFNGRSDYQAFILNGIPAGGLFTGAEAIKTEEQAQLFGGQAGVALDANYHAKGDNMTNLNREAFLINSRATAFAVATYANSLDSIPPRNMTTVVKRSQLEQAMKRTPHTHTGGTGCYKDRVEQ
B2: pkLAP: commercially available microsomal LAP from porcine kidney (MEROPS>M1 family) (protein, UniProt P15145 2-963, looked up)
Aminopeptidase N: AKGFYISKALGILGILLGVAAVATIIALSVVYAQEKNKNAEHVPQAPTSPTITTTAAITLDQSKPWNRYRLPTTLLPDSYNVTLRPYLTPNADGLYIFKGKSIVRLLCQEPTDVIIIHSKKLNYTTQGHMVVLRGVGDSQVPEIDRTELVELTEYLVVHLKGSLQPGHMYEMESEFQGELADDLAGFYRSEYMEGNVKKVLATTQMQSTDARKSFPCFDEPAMKATFNITLIHPNNLTALSNMPPKGSSTPLAEDPNWSVTEFETTPVMSTYLLAYIVSEFQSVNETAQNGVLIRIWARPNAIAEGHGMYALNVTGPILNFFANHYNTSYPLPKSDQIALPDFNAGAMENWGLVTYRENALLFDPQSSSISNKERVVTVIAHELAHQWFGNLVTLAWWNDLWLNEGFASYVEYLGADHAEPTWNLKDLIVPGDVYRVMAVDALASSHPLTTPAEEVNTPAQISEMFDSISYSKGASVIRMLSNFLTEDLFKEGLASYLHAFAYQNTTYLDLWEHLQKAVDAQTSIRLPDTVRAIMDRWTLQMGFPVITVDTKTGNISQKHFLLDSESNVTRSSAFDYLWIVPISSIKNGVMQDHYWLRDVSQAQNDLFKTASDDWVLLNVNVTGYFQVNYDEDNWRMIQHQLQTNLSVIPVINRAQVIYDSFNLATAHMVPVTLALDNTLFLNGEKEYMPWQAALSSLSYFSLMFDRSEVYGPMKKYLRKQVEPLFQHFETLTKNWTERPENLMDQYSEINAISTACSNGLPQCENLAKTLFDQWMSDPENNPIHPNLRSTIYCNAIAQGGQDQWDFAWGQLQQAQLVNEADKLRSALACSNEVWLLNRYLGYTLNPDLIRKQDATSTINSIASNVIGQPLAWDFVQSNWKKLFQDYGGGSFSFSNLIQGVTRRFSSEFELQQLEQFKKNNMDVGFGSGTRALEQALEKTKANIKWVKENKEVVLNWFIEHS

How the values were obtained:
[1] = tested on: T. rubrum secreted proteolytic activity; assay: Inhibition of T. rubrum secreted proteolytic activity (resorufin-labeled casein); format: biochemical, Trichophyton rubrum; conditions: resorufin-labeled casein as substrate
Experimental: The proteolytic activity was measured using resorufin-labeled casein in phosphate buffer (20 mM; pH 7.4). The reaction mixture contained 0.02% substrate in a total volume of 0.5 ml. After incubation at 37° C., the undigested substrate was precipitated by trichloroacetic add (4% final concentration) and separated from the supernatant by centrifugation. The absorbance at 574 nm of the supernatant was measured after alkalinization by adding 500 μl Tris buffer (500 mM; pH 9.4). For practical purposes, one unit (U) of proteolytic activity was defined as that producing an absorbance of 0.001 per min.
T. rubrum was grown at 30° C. in a medium containing 0.2% soy protein as a sole carbon and nitrogen source. After 14 days of growth, a concomitant clarification of the culture medium was noted and a substantial proteolytic activity (400 U ml^−1) detected using resorufin-labeled casein as substrate. This proteolytic activity was 15% and 85% inhibited by PMSF and ortho-phenanthroline. respectively, attesting that serine and metalloproteases were secreted by T. rubrum. […] In addition, a high activity on substrates such as Leu-AMC and Leu-pNA was detected in the T. rubrum culture supernatant.

[2] = tested on: all the LAPs tested (ruLAP1, ruLAP2, fuLAP1, fuLAP2, pkLAP); format: biochemical; conditions: Leu-AMC 5 mM; amastatin 500 μM; ortho-phenantroline 1 and 5 mM; others as
Experimental: Inhibitors and metallic cations were pre-incubated with the enzymes for 15 min at 37° C. Then, Leu-AMC at a 5 mM final concentration was added. After further incubation for 60 min, enzyme activity was measured as described above. The inhibitors and their concentrations tested purified LAPs were: 500 μM amastatin (Bachem), 40 μM benzamidine (Sigma), 500 μM bestatin (Bachem), 5 mM/l mM EDTA (Sigma). 100 μM E-64 (L-trans-epoxysuccinyl-leu-4-guanidinobutylamide) (Bachem), 100 μM leupeptin (Sigma), 5 mM/1 mM ortho-phenanthroline (Sigma), 500 μM p-chloromercuribenzoic acid (Sigma), 100 μM pepstatin A (Sigma), 40 μM PMSF (Sigma), 20 μM TLCK (Roche Diagnostics), and 20 μM TPCK (Roche Diagnostics).

[3] = Aminopeptidase P activity assay; format: biochemical; conditions: substrate Lys(Abz)-Pro-Pro-pNA, 5 mM, 37° C., 60 min
Experimental: (§1) Aminopeptidase activity was determined using different fluorogenic aminoacyl-4-methylcoumaryl-7-amide derivatives of peptides and the internally quenched fluorogenic substrate Lys(Abz)-Pro-Pro-pNA for specific determination of aminopeptidase P activity. Stockel et al, Adv Exp. Med. Biol. 421:31-35 (1997). All substrates were from Bachem (Bubendorf, Switzerland). Substrate stock solutions were prepared at 0.1 M according to the recommendations of the manufacturer and stored at −20° C. The reaction mixture contained a concentration of 5 mM substrate and enzyme preparation (between 56 and 2,662 ng per assay depending on the cleavage activity of each enzyme for the substrates) in 25 μl of 50 mM Tris-HCl buffer adjusted at the optimal pH for each LAP (between 7 and 8). After incubation at 37° C. for 60 min, the reaction was terminated by adding 5 μl of glacial acetic acid and the reaction mixture was diluted with 3.5 ml of water. The released 7-amino-4-methylcoumarin (AMC) was measured using a spectrofluorophotometer (Perkin Elmer LS-5 fluorometer, Zurich, Switzerland) at an excitation wavelength of 370 nm and an emission wavelength of 460 nm. A standard curve made with synthetic AMC was used to assess the released AMC. The released diprolyl-p-nitroanilide was measured at an excitation wavelength of 310 nm and an emission wavelength of 410 nm. The LA activities were expressed in mnoles of released AMC or pNA/min/μg protein.

[4] = Aminopeptidase activity assay with fluorogenic aminoacyl-AMC substrates; format: biochemical; conditions: for preference for aminoacyl-AMC substrates compared to Leu-AMC: Leu-AMC used as a reference; for hydrolytic activity toward Ala-AMC in comparison (%) to Leu-MCA: substrate Ala-AMC; for hydrolytic activity toward Ala-AMC in comparison (%) to Leu-MCA / hydrolytic activity toward Arg-AMC in comparison (%) to Leu-MCA / hydrolytic activity toward Asn-AMC in comparison (%) to Leu-MCA / hydrolytic activity toward Asp-AMC in comparison (%) to Leu-MCA / hydrolytic activity toward Cys-AMC in comparison (%) to Leu-MCA / hydrolytic activity toward Gln-AMC in comparison (%) to Leu-MCA / hydrolytic activity toward Glu-AMC in comparison (%) to Leu-MCA / hydrolytic activity toward Gly-AMC in comparison (%) to Leu-MCA / hydrolytic activity toward Gly-Pro-AMC in comparison (%) to Leu-MCA / hydrolytic activity toward His-AMC in comparison (%) to Leu-MCA / hydrolytic activity toward Hyp-AMC in comparison (%) to Leu-MCA / hydrolytic activity toward Ile-AMC in comparison (%) to Leu-MCA / hydrolytic activity toward Leu-AMC in comparison (%) to Leu-MCA used as a standard / hydrolytic activity toward Lys-AMC in comparison (%) to Leu-MCA / hydrolytic activity toward Met-AMC in comparison (%) to Leu-MCA / hydrolytic activity toward Phe-AMC in comparison (%) to Leu-MCA / hydrolytic activity toward Pro-AMC in comparison (%) to Leu-MCA / hydrolytic activity toward Pyr-AMC in comparison (%) to Leu-MCA / hydrolytic activity toward Ser-AMC in comparison (%) to Leu-MCA / hydrolytic activity toward Thr-AMC in comparison (%) to Leu-MCA / hydrolytic activity toward Val-AMC in comparison (%) to Leu-MCA: 5 mM, 37° C., 60 min; for hydrolytic activity toward Arg-AMC in comparison (%) to Leu-MCA: substrate Arg-AMC; for hydrolytic activity toward Asn-AMC in comparison (%) to Leu-MCA: substrate Asn-AMC; for hydrolytic activity toward Asp-AMC in comparison (%) to Leu-MCA: substrate Asp-AMC; for hydrolytic activity toward Cys-AMC in comparison (%) to Leu-MCA: substrate Cys-AMC; for hydrolytic activity toward Gln-AMC in comparison (%) to Leu-MCA: substrate Gln-AMC; for hydrolytic activity toward Glu-AMC in comparison (%) to Leu-MCA: substrate Glu-AMC; for hydrolytic activity toward Gly-AMC in comparison (%) to Leu-MCA: substrate Gly-AMC; for hydrolytic activity toward Gly-Pro-AMC in comparison (%) to Leu-MCA: substrate Gly-Pro-AMC; for hydrolytic activity toward His-AMC in comparison (%) to Leu-MCA: substrate His-AMC; for hydrolytic activity toward Hyp-AMC in comparison (%) to Leu-MCA: substrate Hyp-AMC; for hydrolytic activity toward Ile-AMC in comparison (%) to Leu-MCA: substrate Ile-AMC; for hydrolytic activity toward Leu-AMC in comparison (%) to Leu-MCA used as a standard: substrate Leu-AMC (standard); for hydrolytic activity toward Lys-AMC in comparison (%) to Leu-MCA: substrate Lys-AMC; for hydrolytic activity toward Met-AMC in comparison (%) to Leu-MCA: substrate Met-AMC; for hydrolytic activity toward Phe-AMC in comparison (%) to Leu-MCA: substrate Phe-AMC; for hydrolytic activity toward Pro-AMC in comparison (%) to Leu-MCA: substrate Pro-AMC; for hydrolytic activity toward Pyr-AMC in comparison (%) to Leu-MCA: substrate Pyr-AMC; for hydrolytic activity toward Ser-AMC in comparison (%) to Leu-MCA: substrate Ser-AMC; for hydrolytic activity toward Thr-AMC in comparison (%) to Leu-MCA: substrate Thr-AMC; for hydrolytic activity toward Val-AMC in comparison (%) to Leu-MCA: substrate Val-AMC
Experimental: as §1
Table 15 details the hydrolytic activity of different LAPs toward various aminoacyl-MCA comparison (%) to Leu-MCA used as a standard.

gliadin 33 mer = assay: Digestion of gliadin 33 mer (RP-HPLC, ESI-MS); format: biochemical, wheat; conditions: 37° C., 1 mM CoCl2, pH7.2

Molecule | hydrolytic activity toward Lys(Abz) Pro-PropNA in comparison (%) to Leu-MCA [3] [%] | hydrolysis of Leu-AMC [4] | preference for aminoacyl-AMC substrates compared to Leu-AMC [4] | hydrolytic activity toward Ala-AMC in comparison (%) to Leu-MCA [4] [%] | hydrolytic activity toward Arg-AMC in comparison (%) to Leu-MCA [4] [%] | hydrolytic activity toward Asn-AMC in comparison (%) to Leu-MCA [4] [%] | hydrolytic activity toward Asp-AMC in comparison (%) to Leu-MCA [4] [%] | hydrolytic activity toward Cys-AMC in comparison (%) to Leu-MCA [4] [%] | hydrolytic activity toward Gln-AMC in comparison (%) to Leu-MCA [4] [%] | hydrolytic activity toward Glu-AMC in comparison (%) to Leu-MCA [4] [%] | hydrolytic activity toward Gly-AMC in comparison (%) to Leu-MCA [4] [%] | hydrolytic activity toward Gly-Pro-AMC in comparison (%) to Leu-MCA [4] [%] | hydrolytic activity toward His-AMC in comparison (%) to Leu-MCA [4] [%] | hydrolytic activity toward Hyp-AMC in comparison (%) to Leu-MCA [4] [%] | hydrolytic activity toward Ile-AMC in comparison (%) to Leu-MCA [4] [%] | hydrolytic activity toward Leu-AMC in comparison (%) to Leu-MCA used as a standard [4] [%] | hydrolytic activity toward Lys-AMC in comparison (%) to Leu-MCA [4] [%] | hydrolytic activity toward Met-AMC in comparison (%) to Leu-MCA [4] [%] | hydrolytic activity toward Phe-AMC in comparison (%) to Leu-MCA [4] [%] | hydrolytic activity toward Pro-AMC in comparison (%) to Leu-MCA [4] [%] | other results
c1cnc2c(c1)ccc1cccnc12 [ortho-phenanthroline] | – | – | – | – | – | – | – | – | – | – | – | – | – | – | – | – | – | – | – | – | inhibition of proteolytic activity [1]: 85%; effect of inhibitor on all the LAPs tested [2]: totally inhibited
B1 | 0.0 | efficiently hydrolyzed | common preference for Leu-AMC as a substrate | 11.7 | 2.3 | 73.5 | 0.3 | 2.1 | 37.0 | 1.1 | 2.2 | 74.1 | 1.9 | 13.3 | 1.8 | 100.0 | 2.3 | 89.5 | 8.9 | 7.4 | hydrolytic activity toward Pyr-AMC in comparison (%) to Leu-MCA [4]: 0.0%; hydrolytic activity toward Ser-AMC in comparison (%) to Leu-MCA [4]: 10.3%; hydrolytic activity toward Thr-AMC in comparison (%) to Leu-MCA [4]: 0.1%; hydrolytic activity toward Val-AMC in comparison (%) to Leu-MCA [4]: 0.8%
B2 | 0.0 | efficiently hydrolyzed | extremely high efficiency towards Ala-AMC and Arg-AMC; also recorded: common preference for Leu-AMC as a substrate | 584.7 | 174.8 | 33.9 | 0.9 | 35.5 | 50.7 | 4.7 | 74.8 | 16.7 | 17.6 | 1.7 | 6.3 | 100.0 | 70.1 | 46.1 | 184.4 | 7.9 | digestion of the 33 mer (gliadin 33 mer): partial deletion of N-terminal Leu and C-terminal Phe; hydrolytic activity toward Pyr-AMC in comparison (%) to Leu-MCA [4]: 0.0%; hydrolytic activity toward Ser-AMC in comparison (%) to Leu-MCA [4]: 24.6%; hydrolytic activity toward Thr-AMC in comparison (%) to Leu-MCA [4]: 4.4%; hydrolytic activity toward Val-AMC in comparison (%) to Leu-MCA [4]: 4.0%
